T1: GST–PAH1 (amino acids 34–108) (mouse (as mSin3b), UniProt Q62141 34-108)
T1 sequence (looked up): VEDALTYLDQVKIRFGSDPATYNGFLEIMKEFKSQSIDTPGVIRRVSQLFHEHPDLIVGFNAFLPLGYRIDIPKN

B1: protG-P1-8 Phe9 to alanine (peptide)
chain: SAAMGSAEAEALVALLFLSEE
B2: protG-P1-8 Val13 to alanine (peptide)
chain: SAAMGSAEFEALAALLFLSEE
B3: protG-P1-8 Leu12 to alanine (peptide)
chain: SAAMGSAEFEAAVALLFLSEE
B4: protG-P1-1 (P1-1 fused to the GB1 domain of streptococcal protein G) (peptide)
chain: EGDWLFFVLLVGLL
B5: protG-P1-8 (P1-8 fused to the GB1 domain of streptococcal protein G) (peptide)
chain: SAAMGSAEFEALVALLFLSEE

Biological target: T1, GST–PAH1 (amino acids 34–108)
Assay: pull-down

Row | Binder | binding result
1 | B1 | binds
2 | B2 | binds
3 | B3 | binds
4 | B4 | binds
5 | B5 | binds

— PMC1557813 (Nucleic Acids Research, 2006)
